Patent publication US20220380738

Key:
[1] = system: CbAgo (Clostridium butyricum); assay: cleavage_in_vitro; conditions: 5'-phosphate
[2] = target: T1, RecC protein (wild type, N-terminal 6xHis tag), P07648
T1 chain: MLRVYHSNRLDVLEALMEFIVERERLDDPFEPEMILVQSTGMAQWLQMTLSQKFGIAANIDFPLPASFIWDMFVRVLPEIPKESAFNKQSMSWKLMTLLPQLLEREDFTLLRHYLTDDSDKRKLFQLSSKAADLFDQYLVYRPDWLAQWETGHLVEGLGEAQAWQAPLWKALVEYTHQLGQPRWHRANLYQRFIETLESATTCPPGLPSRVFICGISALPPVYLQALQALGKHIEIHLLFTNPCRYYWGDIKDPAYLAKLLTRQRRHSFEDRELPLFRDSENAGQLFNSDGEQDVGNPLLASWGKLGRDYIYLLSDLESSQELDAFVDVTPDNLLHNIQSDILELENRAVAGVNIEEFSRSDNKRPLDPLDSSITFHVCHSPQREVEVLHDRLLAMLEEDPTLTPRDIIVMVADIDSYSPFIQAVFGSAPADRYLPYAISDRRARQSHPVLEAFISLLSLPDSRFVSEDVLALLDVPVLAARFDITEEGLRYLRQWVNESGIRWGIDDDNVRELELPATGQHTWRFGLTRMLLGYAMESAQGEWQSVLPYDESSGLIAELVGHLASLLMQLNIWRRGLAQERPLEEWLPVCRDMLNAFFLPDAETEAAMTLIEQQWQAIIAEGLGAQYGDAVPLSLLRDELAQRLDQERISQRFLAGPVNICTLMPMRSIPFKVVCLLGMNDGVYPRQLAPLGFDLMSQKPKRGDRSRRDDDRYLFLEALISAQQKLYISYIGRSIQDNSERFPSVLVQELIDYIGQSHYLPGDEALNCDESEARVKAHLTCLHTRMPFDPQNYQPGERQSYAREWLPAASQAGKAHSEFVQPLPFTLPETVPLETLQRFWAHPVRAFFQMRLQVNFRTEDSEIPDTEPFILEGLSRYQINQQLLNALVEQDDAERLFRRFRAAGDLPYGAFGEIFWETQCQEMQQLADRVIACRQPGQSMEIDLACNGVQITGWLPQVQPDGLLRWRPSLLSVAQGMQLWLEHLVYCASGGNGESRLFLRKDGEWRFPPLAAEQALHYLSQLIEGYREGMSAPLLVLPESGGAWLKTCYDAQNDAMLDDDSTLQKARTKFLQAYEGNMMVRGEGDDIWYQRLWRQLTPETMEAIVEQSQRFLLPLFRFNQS

Molecule: AGTGCTGAGGTTGACTTAGTT / GTTTGCTGATGAACTAAGTCAACCTCAGCATCAACCTTGCGAGTCATTTCTTT [T2-A1 ; ss-phiX174]
- activity ([1]; 16 min, 37 C): 35 % cleaved

Molecule: CGCAAGGTTAGTGCTGAGGTT / GTTTGCTGATGAACTAAGTCAACCTCAGCATCAACCTTGCGAGTCATTTCTTT [T1-C1 ; ss-phiX174]
- activity ([1]; 16 min, 37 C): 50 % cleaved

Molecule: GTGCTGAGGTTGACTTAGTTC / GTTTGCTGATGAACTAAGTCAACCTCAGCATCAACCTTGCGAGTCATTTCTTT [T2-G1 ; ss-phiX174]
- activity ([1]; 4 min, 37 C): 80 % cleaved

Molecule: TCGCAAGGTTAGTGCTGAGGT / GTTTGCTGATGAACTAAGTCAACCTCAGCATCAACCTTGCGAGTCATTTCTTT [T1 ; ss-phiX174]
- activity ([1]; 4 min, 37 C): 74 % cleaved

Molecule: TGACTGCGATCCTGCAT / GCTAGATAGATTGACAGATTACTCAAGCAGGCATGCAGGATCGCAGTCAGATTTATGTGTCATATAGTACGTGATTCAAG / CTTGAATCACGTACTATATGACACATAAATCTGACTGCGATCCTGCATGCCTGCTTGAGTAATCTGTCAATCTATCTAGC [B12 ; 80 bp blunt substrate]
- activity ([1]; with RecdeltaB-C helicase, 15 min, 2-fold more with added CbuRecQ): 25 % cleaved

B1: RecB^exo- (full-length nuclease deficient RecB DNA helicase variant, E1020A/D1080A/K1082A, N-terminal 6xHis tag) (protein)
chain: MSDVAETLDPLRLPLQGERLIEASAGTGKTFTIAALYLRLLLGLGGSAAFPRPLTVEELLVVTFTEAATAELRGRIRSNIHELRIACLRETTDNPLYERLLEEIDDKAQAAQWLLLAERQMDEAAVFTIHGFCQRMLNLNAFESGMLFEQQLIEDESLLRYQACADFWRRHCYPLPREIAQVVFETWKGPQALLRDINRYLQGEAPVIKAPPPDDETLASRHAQIVARIDTVKQQWRDAVGELDALIESSGIDRRKFNRSNQAKWIDKISAWAEEETNSYQLPESLEKFSQRFLEDRTKAGGETPRHPLFEAIDQLLAEPLSIRDLVITRALAEIRETVAREKRRRGELGFDDMLSRLDSALRSESGEVLAAAIRTRFPVAMIDEFQDTDPQQYRIFRRIWHHQPETALLLIGDPKQAIYAFRGADIFTYMKARSEVHAHYTLDTNWRSAPGMVNSVNKLFSQTDDAFMFREIPFIPVKSAGKNQALRFVFKGETQPAMKMWLMEGESCGVGDYQSTMAQVCAAQIRDWLQAGQRGEALLMNGDDARPVRASDISVLVRSRQEAAQVRDALTLLEIPSVYLSNRDSVFETLEAQEMLWLLQAVMTPERENTLRSALATSMMGLNALDIETLNNDEHAWDVVVEEFDGYRQIWRKRGVMPMLRALMSARNIAENLLATAGGERRLTDILHISELLQEAGTQLESEHALVRWLSQHILEPDSNASSQQMRLESDKHLVQIVTIHKSKGLEYPLVWLPFITNFRVQEQAFYHDRHSFEAVLDLNAAPESVDLAEAERLAEDLRLLYVALTRSVWHCSLGVAPLVRRRGDKKGDTDVHQSALGRLLQKGEPQDAAGLRTCIEALCDDDIAWQTAQTGDNQPWQVNDVSTAELNAKTLQRLPGDNWRVTSYSGLQQRGHGIAQDLMPRLDVDAAGVASVVEEPTLTPHQFPRGASPGTFLHSLFEDLDFTQPVDPNWVREKLELGGFESQWEPVLTEWITAVLQAPLNETGVSLSQLSARNKQVAMEFYLPISEPLIASQLDTLIRQFDPLSAGCPPLEFMQVRGMLKGFIDLVFRHEGRYYLLAYASNWLGEDSSAYTQQAMAAAMQAHRYDLQYQLYTLALHRYLRHRIADYDYEHHFGGVIYLFLRGVDKEHPQQGIYTTRPNAGLIALMDEMFAGMTLEEA
- DNA unwinding activity (DpnI-based helicase assay, capillary electrophoresis) [2]: RecB^exo- alone is a weak DNA helicase, but its unwinding activity significantly increases after interaction with RecC protein
